According to paper doi:10.1101/322701 (bioRxiv, 2018):

Experiments:
Assay in all cases: BLI
[1] = molecular target: Biotinylated NH-GrgA (Chlamydia trachomatis) (UniProt O84512)
[2] = molecular target: N-terminally His-tagged GrgA, full length (Chlamydia trachomatis) (UniProt O84512)
[3] = molecular target: NH-GrgAΔ1-64 (Chlamydia trachomatis) (UniProt O84512)
[4] = molecular target: T1, N-terminally His-tagged GrgA, full length (Chlamydia trachomatis, UniProt O84512 1-288)
T1 sequence (looked up): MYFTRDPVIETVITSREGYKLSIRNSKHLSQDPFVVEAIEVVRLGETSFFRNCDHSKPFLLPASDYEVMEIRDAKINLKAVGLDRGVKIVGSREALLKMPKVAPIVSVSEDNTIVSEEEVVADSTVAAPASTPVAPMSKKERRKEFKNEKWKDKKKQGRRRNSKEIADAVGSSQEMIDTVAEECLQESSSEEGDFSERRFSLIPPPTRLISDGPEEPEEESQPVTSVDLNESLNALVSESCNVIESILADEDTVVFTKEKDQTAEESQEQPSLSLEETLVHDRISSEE

[5] = molecular target: T2, CH-σ^66 (C. trachomatis, UniProt P18333 1-571)
T2 sequence (looked up): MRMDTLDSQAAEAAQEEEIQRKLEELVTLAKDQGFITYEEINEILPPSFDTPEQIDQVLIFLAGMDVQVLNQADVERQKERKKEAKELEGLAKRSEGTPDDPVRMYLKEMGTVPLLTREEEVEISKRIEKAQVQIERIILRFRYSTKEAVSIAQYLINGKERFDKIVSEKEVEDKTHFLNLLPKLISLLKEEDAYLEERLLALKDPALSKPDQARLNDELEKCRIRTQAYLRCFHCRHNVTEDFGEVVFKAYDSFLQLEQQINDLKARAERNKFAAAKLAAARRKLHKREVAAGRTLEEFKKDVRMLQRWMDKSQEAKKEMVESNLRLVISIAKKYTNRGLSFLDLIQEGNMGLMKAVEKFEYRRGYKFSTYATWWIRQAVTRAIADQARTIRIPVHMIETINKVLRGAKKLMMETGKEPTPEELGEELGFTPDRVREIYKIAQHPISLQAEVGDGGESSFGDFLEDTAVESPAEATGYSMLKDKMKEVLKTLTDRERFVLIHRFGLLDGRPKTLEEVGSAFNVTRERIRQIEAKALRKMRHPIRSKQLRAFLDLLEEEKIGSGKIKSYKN

[6] = molecular target: N-terminally poly-His-tagged C. trachomatis σ^28 (C. trachomatis)
Chain of N-terminally poly-His-tagged C. trachomatis σ^28 (C. trachomatis) (B0B8K1 whole entry): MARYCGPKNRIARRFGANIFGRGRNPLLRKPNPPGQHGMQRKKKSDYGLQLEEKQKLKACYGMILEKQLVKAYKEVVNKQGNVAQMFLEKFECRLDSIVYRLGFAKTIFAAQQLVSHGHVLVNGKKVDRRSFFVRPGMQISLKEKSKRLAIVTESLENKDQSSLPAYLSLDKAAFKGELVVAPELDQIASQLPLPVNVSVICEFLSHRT

Molecule: NH-σ^28ΔR3 (natural protein)
- fold higher KD than full length NH-σ^28 [1]: 7 fold
- fold increase in ka against full length NH-σ^28 [1]: 3.5 fold

Molecule: NH-σ^28ΔNL (domain or fragment)
- fold higher KD than full length NH-σ^28 [1]: 345 fold

Molecule: NH-σ^28ΔR2 (natural protein)
- fold higher KD than full length NH-σ^28 [1]: 177 fold
- fold reduction in ka against full length NH-σ^28 [1]: 2 fold

Molecule: NH-σ^28ΔR4 (natural protein)
- fold higher KD than full length NH-σ^28 [1]: 7 fold
- percent increase in ka against full length NH-σ^28 [1]: 50%

Molecule: N-terminally strep-tagged σ^28 (natural protein)
- fold higher KD than the NH-GrgA-CS-σ^66 interaction [2]: 32 fold
- fold decrease in ka against full length NH-GrgA [3]: 3 fold
- fold increase in KD against full length NH-GrgA [3]: 4.8 fold
- fold increase in kd against full length NH-GrgA [3]: 2 fold

B1: CS-σ^66 (natural protein, C. trachomatis, UniProt P18333 1-571, looked up)
chain: T2 sequence (looked up)
- fold higher ka than the NS-σ^28 analyte on NH-GrgA [4]: 25 fold
- fold increase in kd over the NS-σ^28 analyte on NH-GrgA [4]: 3 fold

B2: N-terminally strep-tagged GrgA (natural protein, Chlamydia trachomatis, UniProt O84512 1-288, looked up)
chain: T1 sequence (looked up)
- fold higher ka than for NH-σ^28 as ligand [5]: 3.7 fold
- fold slower dissociation (kd) than from NH-σ^28 [5]: 6 fold
- fold higher KD than the CH-σ^66-NS-GrgA interaction [6]: 28 fold
